Reference: article PMC8101287 (2020)
Where “and” joins values, the source holds several entries; their conditions need not be identical. Equal values may be shown once. Read-outs that look alike come from different tables or passages of the source.

Columns and labels:
[1] = target: T1, HLA‐DR1 (HLA‐DRA1*01:01/HLA‐DRB*01:01) complexed with the HA_(306‐318) peptide, refolded from E. coli (human | ); assay: SPR
[2] = target: T1, HLA‐DR1 (HLA‐DRA1*01:01/HLA‐DRB*01:01) …; assay: SPR; remark: listed apart in the source

B1: LAG‐3:Fc fusion protein (four extracellular domains of LAG‐3 and the Fc domain of IgG) (Fc fusion)
chain: LQPGAEVPVVWAQEGAPAQLPCSPTIPLQDLSLLRRAGVTWQHQPDSGPPAAAPGHPLAPGPHPAAPSSWGPRPRRYTVLSVGPGGLRSGRLPLQPRVQLDERGRQRGDFSLWLRPARRADAGEYRAAVHLRDRALSCRLRLRLGQASMTASPPGSLRASDWVILNCSFSRPDRPASVHWFRNRGQGRVPVRESPHHHLAESFLFLPQVSPMDSGPWGCILTYRDGFNVSIMYNLTVLGLEPPTPLTVYAGAGSRVGLPCRLPAGVGTRSFLTAKWTPPGGGPDLLVTGDNGDFTLRLEDVSQAQAGTYTCHIHLQEQQLNATVTLAIITVTPKSFGSPGSLGKLLCEVTPVSGQERFVWSSLDTPSQRSFSGPWLEAQEAQLLSQPWQCQLYQGERLLGAAVYFTELSSPGAQRSGRAPGALPAGHL
Kd [1]: 7300 nM | Kd [2]: 3000 nM and 1000 nM
